Consider nine variants from FireProtDB.

B1: T132I, Q2YD82 (parent)
chain: MDCAEGRAANLPCNHSTISGNEYVYWYRQIHSQGPQYIIHGLKNNETNEMASLIITEDRKSSTLILPHATLRDTAVYYCIVYDYGQNFVFGPGTRLSVLPYIQNPDPAVYQLRDSKSSDKSVCLFTDFDSQTNVSQSKDSDVYITDKTVLDMRSMDFKSNSAVAWSNKSDFACANAFNNSIIPEDTFFPSPESSCDVKLVEKSFETDTNLNFQNLSVIGFRILLLKVAGFNLLMTLRLWSS
B2: T-cell surface antigen CD2, P08921 (parent)
chain: MRCKFLGSFFLLFSLSSKGADCRDSGTVWGALGHGINLNIPNFQMTDDIDEVRWERGSTLVAEFKRKMKPFLKSGAFEILANGDLKIKNLTRDDSGTYNVTVYSTNGTRILNKALDLRILEMVSKPMIYWECSNATLTCEVLEGTDVELKLYQGKEHLRSLRQKTMSYQWTNLRAPFKCKAVNRVSQESEMEVVNCPEKGLPLYLIVGVSAGGLLLVFFGALFIFCICKRKKRNRRRKGEELEIKASRMSTVERGPKPHSTQASAPASQNPVASQAPPPPGHHLQTPGHRPLPPSHRNREHQPKKRPPPSGTQVHQQKGPPLPRPRVQPKPPCGSGDVSLPPPN
B3: Beta-xylanase, O68541 (parent)
chain: MNLSRRQLLALTSAGIAMGQASKLAAATKAAEQTGLKSAYKDNFLIGAALNATIASGADERLNTLIAKEFNSITPENCMKWGVLRDAQGQWNWKDADAFVAFGTKHNLHMVGHTLVWHSQIHDEVFKNADGSYISKAALQKKMEEHITTLAGRYKGKLAAWDVVNEAVGDDLKMRDSHWYKIMGDDFIYNAFTLANEVDPKAHLMYNDYNIERTGKREATVEMIERLQKRGMPIHGLGIQGHLGIDTPPIAEIEKSIIAFAKLGLRVHFTELDVDVLPSVWELPVAEVSTRFEYKPERDPYTKGLPQEMQDKLAKRYEDLFKLFIKHSDKIDRATFWGVSDDASWLNGFPIPGRTNYPLLFDRKLQPKDAYFRLLDLKR
B4: N154D, Q8GB52 (parent)
chain: MLKKVLSCCIAATFGIYSASSLAQSSVINSTENSQQPIAPLVLASSDDAITDRYIVVLKQPQMLMNDAAGLQQFTQQTVGLMANSFSIKTDDVFDSSIIGFVANLDALQLKQLRRDSRVEYIEQDQILSIDPVVSNEAVQSNAIWGLDRIDQRNLPLDRNYNANFDGFGVTAYVIDTGVNNNHEEFGGRSVSGYDFVDNDADSSDCNGHGTHVAGTIGGSQYGVAKNVNIVGVRVLSCSGSGTTSGVISGVDWVAQNASGPSVANMSLGGGQSTALDSAVQGAIQSGVSFMLAAGNSNADACNTSPARVPSGVTVGSTTSSDSRSSFSNWGSCVDLFAPGSQIKSAWYDGGYKTISGTSMATPHVAGVAALYLQENNGLTPLQLTGLLNSRASENKVSDTRGTTNKLLYSLADSGCEPDCGGPTPGPDPDGKLVSGVPVNGLSGSRGQKDYFYMDLQQGQQLTVVTIGGTGDADLYLRFGDKPTLNTWDCRPYRSGNSETCTVNVTQSGRYHVMLNAYSAYSGLTLQANF

Where “and” joins values, the source holds several entries; their conditions need not be identical. Equal entries are not always repeated.

The variants in the first data set derive from B1. The following applies: Homo sapiens; Thermal; fluorescence; structure 6U07; whole UniProt chain shown.
Regarding MDCAEGRAANLPCNHSTISGNEYVYWYRQIHSQGPQYIIHGLKNNETNEMASLIITEDRKSSTLILPHATLRDTAVYYCIVYDYGQNFVFGPGTRLSVLPYIQNPDPAVYQLRDSKSSDKSVCLFTDFDSQINVSQSKDSDVYITDKTVLDMRSMDFKSNSAVAWSNKSDFACANAFNNSIIPEDTFFPSPESSCDVKLVEKSFETDTNLNFQNLSVIGFRILLLKVAGFNLLMTLRLWSS [T132I], the Tm worked out at 55.7 °C and the “change of melting temperature, mutant - wild type (higher = more stable)” value (shortened to “change of melting temperature, mutant”) worked out at 0.8 °C. The like results for MDCAEGRAANLPCNHSTISGNEYVYWYRQIHSQGPQYIIHGLKNNETNEMASLIITEDRKSSTLILPHATLRDTAVYYCIVYDYGQNFVFGPGTRLSVLPYIQNPDPAVYQLRDSKSSDKSVCLFTDFDSQTNVSQSKDSDVYITDKTVLSMRSMDFKSNSAVAWSNKSDFACANAFNNSIIPEDTFFPSPESSCDVKLVEKSFETDTNLNFQNLSVIGFRILLLKVAGFNLLMTLRLWSS [D151S] were, in that order, 53.3 °C and -1.6 °C. As for MDCAEGRAANLPCNHSTISGNEYVYWYRQIHSQGPQYIIHGLKNNETNEMASLIITEDRKSSTLILPHATLRDTAVYYCIVYDYGQNFVFGPGTRLSVLPYIQNPDPAVYQLRDSKSSDKFVCLFTDFDSQTNVSQSKDSDVYITDKTVLDMRSMDFKSNSAVAWSNKSDFACANAFNNSIIPEDTFFPSPESSCDVKLVEKSFETDTNLNFQNLSVIGFRILLLKVAGFNLLMTLRLWSS [S121F], the Tm was found to be 58.5 °C and the “change of melting temperature, mutant” value worked out at 5.2 °C.

In the next data set the parent is B2. Conditions: Rattus norvegicus; pH 5; 25 °C; Urea; Fluorescence; Sodium acetate 50 mM; reversible: yes; structure 1HNG; whole UniProt chain shown.
For MRCKFLGSFFLLFSLSSKGADCRDSGTVWGALGHGINLNIPNFQMTDDIDEVRWERGSTLVAEFKRKMKPFLKSGAFEILANGDLKIKNLTRDDSGTFNVTVYSTNGTRILNKALDLRILEMVSKPMIYWECSNATLTCEVLEGTDVELKLYQGKEHLRSLRQKTMSYQWTNLRAPFKCKAVNRVSQESEMEVVNCPEKGLPLYLIVGVSAGGLLLVFFGALFIFCICKRKKRNRRRKGEELEIKASRMSTVERGPKPHSTQASAPASQNPVASQAPPPPGHHLQTPGHRPLPPSHRNREHQPKKRPPPSGTQVHQQKGPPLPRPRVQPKPPCGSGDVSLPPPN [Y98F], the “ddG of mutation (higher = less stable)” value was -1.49 kcal/mol.

The variants in the next data set derive from B3. Conditions: Cellvibrio mixtus; pH 7.5; Thermal; DSC; MOPS 20 mM; CaCl2 1 mM; reversible: No; structure 1UR1; whole UniProt chain shown.
With MNLSRRQLLALTSAGIAMGQASKLAAATKAAEQTGLKSAYKDNFLIGAALNATIASGADERLNTLIAKEFNSITPENCMKWGVLRDAQGQWNWKDADAFVAFGTKHNLHMVGHTLVWHSQIHDEVFKNADGSYISKAALQKKMEEHITTLAGRYKGKLAAWDVVNEAVGDDLKMRDSHWYKIMGDDFIYNAFTLANEVDPKAHLMYNDYNIERTGKREATVEMIERLQKRGMPIHGLGIQGHLGIDTPPIAEIEKSIIAFAKLGLRVHFTELDVDVLPSVWELPVAEVSTRFEYKPERDPYTKGLPQEMQDKLAKRYEDLFKLFIKHSDKIDRATFWGVSDDASWLNDFPIPGRTNYPLLFDRKLQPKDAYFRLLDLKR [G348D], the Tm was 64.6 °C and the “change of melting temperature, mutant” value amounted to 6 °C. MNLSRRQLLALTSAGIAMGQASKLAAATKAAEQTGLKSAYKDNFLIGAALNATIASGADERLNTLIAKEFNSITPENCMKWGVLRDAQGQWNWKDADAFVAFGTKHNLHMVGHTLVWHSQIHDEVFKNADGSYISKAALQKKMEEHITTLAGRYKGKLAAWDVVNEAVGDDLKMRDSHWYKIMGDDFIYNAFTLANEVDPKAHLMYNDYNIERTGKREATVEMIERLQKRGMPIHGLGIQGHLGIDTPPIAEIEKSIIAFAKLGLRVHFTELDVDVLPSVWELPVAEVSTRFEYKPERDPYTKGLPQEMQDKLAKRYEDLFKLFIKHSDKIDRVTFWGVSDDASWLNGFPIPGRTNYPLLFDRKLQPKDAYFRLLDLKR [A334V]: the Tm is 62.1 °C and the “change of melting temperature, mutant” value was 3.5 °C. Regarding MNLSRRQLLALTSAGIAMGQASKLAAATKAAEQTGLKSAYKDNFLIGAALNATIASGADERLNTLIAKEFNSITPENCMKWGVLRDAQGQWNWKDADAFVAFGTKHNLHMVGHTLVWHSQIHDEVFKNADGSYISKAALQKKMEEHITTLAGRYKGKLAAWDVVNEAVGDDLKMRDSHWYKIMGDDFIYNAFTLANEVDPKAHLMYNDYNIERTGKREATVEMIERLQKRGMPIHGLGIQGHLGIDTPPIAEIEKSIIAFAKLGLRVHFTELDVDVLPSVWELPVAEVSTRFEYKPERDPYTKGLPQEMQDKLAKRYEDLFKLFIKHSDKIDRVTFWGVSDDASWLNDFPIPGRTNYPLLFDRKLQPKDAYFRLLDLKR [A334V G348D], the Tm is 66.6 °C and the “change of melting temperature, mutant” value is 8 °C.

The next data set covers variants of B4. Conditions: Vibrio sp. PA-44; pH 8.6; Thermal; CD; Glycine 25 mM; NaCl and CaCl2 100 mM and 15 mM; structure 1SH7; whole UniProt chain shown.
Take MLKKVLSCCIAATFGIYSASSLAQSSVINSTENSQQPIAPLVLASSDDAITDRYIVVLKQPQMLMNDAAGLQQFTQQTVGLMANSFSIKTDDVFDSSIIGFVANLDALQLKQLRRDSRVEYIEQDQILSIDPVVSNEAVQSNAIWGLDRIDQRDLPLDRNYNANFDGFGVTAYVIDTGVNNNHEEFGGRSVSGYDFVDNDADSSDCNGHGTHVAGTIGGSQYGVAKNVNIVGVRVLSCSGSGTTSGVISGVDWVAQNASGPSVANMSLGGGQSTALDSAVQGAIQSGVSFMLAAGNSNADACNTSPARVPSGVTVGSTTSSDSRSSFSNWGSCVDLFAPGSQIKSAWYDGGYKTISGTSMATPHVAGVAALYLQENNGLTPLQLTGLLNSRASENKVSDTRGTTNKLLYSLADSGCEPDCGGPTPGPDPDGKLVSGVPVNGLSGSRGQKDYFYMDLQQGQQLTVVTIGGTGDADLYLRFGDKPTLNTWDCRPYRSGNSETCTVNVTQSGRYHVMLNAYSAYSGLTLQANF [N154D]: the Tm is 66.3 °C and 68.2 °C; the “change of melting temperature, mutant” value was 2.7 °C and 3.1 °C. Consider MLKKVLSCCIAATFGIYSASSLAQSSVINSTENSQQPIAPLVLASSDDAITDRYIVVLKQPQMLMNDAAGLQQFTQQTVGLMANSFSIKTDDVFDSSIIGFVANLDALQLKQLRRDSRVEYIEQDQILSIDPVVSNEAVQSNAIWGLDRIDQRDLPLDRNYNANFDGFGVTAYVIDTGVNNNHEEFGGRSVSGYDFVDNDADSSDCNGHGTHVAGTIGGSQYGVAKNVNIVGVRVLSCSGSGTTSGVISGVDWVAQNASGPSVANMSLGGGQSTALDSAVQGAIQSGVSFMLAAGNSNADACNTSPARVPSGVTVGSTTSSDSRSSFSNWGSCVDLFAPGSQIKSAWYDGGYKTISGTSMATPHVAGVAALYLQENNGLTPLQLTGLLNSRASENRVSDTRGTTNKLLYSLADSGCEPDCGGPTPGPDPDGKLVSGVPVNGLSGSRGQKDYFYMDLQQGQQLTVVTIGGTGDADLYLRFGDKPTLNTWDCRPYRSGNSETCTVNVTQSGRYHVMLNAYSAYSGLTLQANF [N154D K396R], for which the Tm came to 65.1 °C and the “change of melting temperature, mutant” value was determined as 1.5 °C.

The term Tm denotes the temperature at the midpoint of the melting transition.
